The record followed here is patent US20230047179A1 (SYDDANSK UNIVERSITET, published 2023).

The target in test [1] is T1, recombinant human MFAP4 (human, UniProt P55083 22-255).
T1 construct: mature; also called rhMFAP4; hrMFAP4
T1 sequence (looked up): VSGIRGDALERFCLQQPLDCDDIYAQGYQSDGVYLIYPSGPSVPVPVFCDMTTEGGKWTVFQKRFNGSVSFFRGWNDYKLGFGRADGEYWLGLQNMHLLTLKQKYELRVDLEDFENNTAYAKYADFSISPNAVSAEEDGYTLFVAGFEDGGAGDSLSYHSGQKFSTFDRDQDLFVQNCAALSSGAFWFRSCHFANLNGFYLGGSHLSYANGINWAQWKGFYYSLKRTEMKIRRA
Put plainly: SPR, Biacore T200. (SPR reads the build-up and loss of mass on a sensor chip optically.)

For the next test, the target named is T2, recombinant mouse MFAP4 (mouse, UniProt Q9D1H9 23-257).
T2 construct: mature; The expression plasmid is pcDNA5/FRT/V5-His TOPO TA; also called murine MFAP4; mouse serum MFAP4
T2 sequence (looked up): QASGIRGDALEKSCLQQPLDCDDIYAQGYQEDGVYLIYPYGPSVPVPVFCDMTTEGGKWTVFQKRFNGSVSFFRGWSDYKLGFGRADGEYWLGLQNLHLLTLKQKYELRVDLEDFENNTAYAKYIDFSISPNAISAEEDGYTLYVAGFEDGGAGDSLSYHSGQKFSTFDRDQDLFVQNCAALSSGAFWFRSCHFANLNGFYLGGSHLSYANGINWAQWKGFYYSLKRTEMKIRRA
Put plainly: direct ELISA, biotinylated antibody on coated recombinant mouse MFAP4, streptavidin-HRP. As to the method:
(§1) 96-well plates (Nunc-MaxiSorp) (Nunc™) were coated with 0.5 μg recombinant mouse MFAP4, recombinant human MFAP4 and recombinant human MFAP4 with the RGD-sequence mutated to AAA in PBS O.N at 4° C. Coating was followed by washing and then blocking in TBS/Tw O.N at 4° C. Blocking was followed by addition of biotinylated antibodies diluted 2-fold from an initial concentration of 100 ng/ml. The plates were then incubated for 2 hours at R.T. The plates were washed three times in TBS/Tw and incubated for 20 minutes with Strepavidin Horseradish Peroxidase (HRP) conjugate (Invitrogen) diluted 1:2000 in TBS/Tw. After final three washes, the amount of bound enzyme was estimated by adding OPD (0.8 mg/ml, Kementec, Taastrup, Denmark) dissolved in substrate buffer (0.03% freshly prepared H₂O₂) and allowed to react for 15 minutes in the dark at RT. Colour development was stopped by the addition of 100 μl 1 M H₂SO₄, and the plates were read at OD₄₉₂ nm with OD₆₀₀ nm as reference.
Background: ELISA stands for enzyme-linked immunosorbent assay.

For test [2], the target named is T1, recombinant human MFAP4. Put plainly: competition ELISA on immobilized recombinant human MFAP4; competitor: biotinylated hAS0326 at 0.5 µg/ml. As to the method:
(§2) Biotinylated A) HG HYB 7-5 (biotinHYB7-5), B) hAS0326 ([…]) and C) mAS0326 (bmAS0326) at a fixed concentration of 0.5 μg/ml were mixed with unlabelled IgG isotype control, HG HYB 7-18 (HYB7-18), HG HYB 7-5 (HYB7-5), hAS0326 and mAS0326 in a 2-fold dilution from 20 μg/ml. […] Only HG Hyb 7-5 was capable of inhibiting the HG HYB 7-5 interaction with target. In contrast, mAS0326 was capable of inhibiting hAS0326 binding to target and vice versa.
(§3) 96-well plates (Nunc-MaxiSorp) were coated with 0.5 μg recombinant human MFAP4 in PBS O.N at 4° C. followed by washing and then blocking in TBS/Tw O.N at 4° C. Biotinylated Mab (0.5 μg/ml) and unlabeled MAbs (diluted 2-fold from 20 μg/ml to 156 ng/ml) were premixed in a separate microtiterplate in TBS/Tw and then added to the MFAP4 coated microtiter plate. The plates were following incubated for 2 hours at R.T. The plates were washed three times in TBS/Tw and incubated for 20 min with Strepavidin Horseradish Peroxidase (HRP) conjugate (Invitrogen) diluted 1:2000 in TBS/Tw. […] Colour development was stopped by the addition of 100 μl 1 M H₂SO₄, and the plates were read at OD₄₉₂ nm with OD₆₀₀ nm as reference.

The target in test [3] is T1, recombinant human MFAP4. Put plainly: competition ELISA on immobilized recombinant human MFAP4; competitor: biotinylated mAS0326 at 0.5 µg/ml. How it is done:
as §2, §3

Test [4] addresses T1, recombinant human MFAP4. Put plainly: competition ELISA on immobilized recombinant human MFAP4; competitor: biotinylated HG HYB 7-5 at 0.5 µg/ml. How it is done: as §2, §3
In test [5] the target is T3, recombinant human MFAP4 with RGD integrin binding motif mutated to AAA (human, UniProt P55083 22-255).
T3 construct: mature; also called human MFAP4 RGD-AAA mutation
T3 sequence (looked up): T1 sequence (looked up) with R5A, G6A, D7A
Put plainly: direct ELISA, biotinylated antibody on coated recombinant human MFAP4 with RGD mutated to AAA, streptavidin-HRP. As to the method: as §1

As usually defined, the Kd is a measure of binding affinity in units of concentration.

Residue numbers refer to the chain shown, from its start.

B1: mAS0326 (antibody, V domains shown)
VH: QVQLQQPGADLVKPGTSVKLSCKASGFTFTSYWMHWVKQRPGQGLEWIGVIHPNSGNTKYNEKFRSEATLTVDKSSNTAYIQLSSLTSEDSAVYYCAREMWNYGNSWYFDVWGTGTTVTVSS
VL: DVQIIQSPSYLAASPGETITINCRASKSISKYLAWYQERPGKTNKLLIYSGSTLQSGIPSRFSGSGSGTDFTLTISSLEPEDFAMYYCQQHNEYPFTFGAGTKLELK
notes: Murine hybridoma monoclonal antibody raised against human recombinant MFAP4; also called biotinmAS0326; bmAS0326
Consider B1, for which the Kd in the test with recombinant human MFAP4 [1] came out at 140 pM. In the test with recombinant mouse MFAP4, the binding result was “binds”. Moreover, the “IC50 (read off the curve)” value in the test with recombinant human MFAP4 [2] and in the test with recombinant human MFAP4 [3] was about 0.9 µg/mL in each case.

B2: Chimeric antibody (mAS0326 with human Fc, CHO expression) (antibody, V domains shown)
VH: B1 VH
VL: B1 VL
With B2, the Kd with recombinant human MFAP4 [1] is 504 pM.

B3: HG HYB 7-5 (antibody, V domains shown)
VH: EVQLQQSGPELVKPGASVKLSCKTSGYTFTSYDMNWVKQRPGQGLEWIGWIFPRDGSTKFNEKFKGKATLTVDTSSTTAYMELHSLTSEDSAVYFCARAEIFFDYGFDYWGQGTTLTVSS
VL: DIVMTQSTALMAASPGEKVTITCSVSSSISSSNLHWYQQKSETSPKSWIYGTSNLASGVPGRFSGSGSGTSYSLTISSVEAEDAATYYCQQWSSYPLTFGGGTKLEIK
notes: also called biotinHYB7-5
B3: the binding result (in the test with recombinant mouse MFAP4; in test [5]) was “no binding (tested: 100 ng/ml)” each time. Also, the “IC50 (read off the curve)” value in the test with recombinant human MFAP4 [4] was about 0.8 µg/mL.
